Experimental data taken from patent US20110009310A1 (CELECURE, published 2011).

Columns and labels:
[1] = molecular target: VEGFR2 (isolated recombinant receptor) (UniProt P35968 20-764, limits assumed); assay: modified ELISA; CD44-3MUT coated on wells, recombinant VEGFR2 added, detected with anti-VEGFR antibody
Description: (§1) Modified ELISA tests to evaluate the binding of VEGFR2 (panel A) and VEGFR1 (panel B) to immobilized CD44-3MUT. […] Nonspecific binding was blocked with 2.5% non-fat dry milk solution. VEGFR1 and VEGFR2 were added into the coated wells and incubated for 1 h at RT. VEGFR binding was detected with anti-VEGFR antibodies
(§2) We have developed a modified ELISA test (to detect CD44-3MUT binding specificity to isolated recombinant receptors VEGFR1 and VEGFR2).

[2] = molecular target: VEGFR1 (isolated recombinant receptor) (UniProt P17948 27-756, limits assumed); assay: modified ELISA; CD44-3MUT coated on wells, recombinant VEGFR1 added, detected with anti-VEGFR antibody
VEGFR1 (isolated recombinant receptor), sequence (P17948 27-756 limits assumed): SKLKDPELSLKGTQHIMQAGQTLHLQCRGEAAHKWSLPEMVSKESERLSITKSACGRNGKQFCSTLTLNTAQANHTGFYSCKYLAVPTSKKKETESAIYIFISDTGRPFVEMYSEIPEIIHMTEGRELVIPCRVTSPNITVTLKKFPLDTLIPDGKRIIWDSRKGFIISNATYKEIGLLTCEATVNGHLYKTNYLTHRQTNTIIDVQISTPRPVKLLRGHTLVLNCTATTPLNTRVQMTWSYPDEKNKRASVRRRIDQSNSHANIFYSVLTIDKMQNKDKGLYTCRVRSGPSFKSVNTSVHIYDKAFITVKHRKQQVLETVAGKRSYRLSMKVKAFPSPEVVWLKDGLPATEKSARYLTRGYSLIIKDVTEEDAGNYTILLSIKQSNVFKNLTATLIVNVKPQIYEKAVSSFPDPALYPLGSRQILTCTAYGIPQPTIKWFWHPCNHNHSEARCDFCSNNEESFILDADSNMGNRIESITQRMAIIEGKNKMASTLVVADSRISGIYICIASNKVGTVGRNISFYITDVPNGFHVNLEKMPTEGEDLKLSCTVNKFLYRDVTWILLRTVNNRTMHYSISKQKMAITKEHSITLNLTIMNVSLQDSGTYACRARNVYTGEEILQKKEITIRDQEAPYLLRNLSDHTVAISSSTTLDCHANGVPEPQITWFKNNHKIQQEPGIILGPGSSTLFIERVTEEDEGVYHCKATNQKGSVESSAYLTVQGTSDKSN
Description: as §1, §2

VEGFR2 (isolated recombinant receptor), sequence (P35968 20-764 limits assumed): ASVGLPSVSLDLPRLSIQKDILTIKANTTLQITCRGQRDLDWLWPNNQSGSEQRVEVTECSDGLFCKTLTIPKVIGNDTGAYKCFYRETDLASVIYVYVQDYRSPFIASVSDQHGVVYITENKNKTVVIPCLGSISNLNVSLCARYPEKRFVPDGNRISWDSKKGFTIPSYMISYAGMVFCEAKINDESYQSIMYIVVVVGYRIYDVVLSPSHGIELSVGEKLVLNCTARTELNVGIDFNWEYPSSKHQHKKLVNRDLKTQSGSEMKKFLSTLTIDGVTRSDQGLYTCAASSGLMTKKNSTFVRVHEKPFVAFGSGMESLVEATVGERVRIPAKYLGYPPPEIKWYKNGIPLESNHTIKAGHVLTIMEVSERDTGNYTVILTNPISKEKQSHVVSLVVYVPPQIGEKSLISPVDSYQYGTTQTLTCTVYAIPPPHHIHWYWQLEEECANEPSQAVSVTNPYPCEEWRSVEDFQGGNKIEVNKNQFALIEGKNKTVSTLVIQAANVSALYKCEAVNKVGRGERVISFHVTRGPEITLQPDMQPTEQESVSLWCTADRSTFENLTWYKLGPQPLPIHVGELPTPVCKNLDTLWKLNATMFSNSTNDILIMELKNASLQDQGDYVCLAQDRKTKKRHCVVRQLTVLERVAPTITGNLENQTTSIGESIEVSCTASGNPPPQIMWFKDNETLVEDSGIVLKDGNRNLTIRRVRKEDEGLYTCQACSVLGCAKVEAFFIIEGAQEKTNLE

B1: CD44HABD^R41AR78SY79S (non-HA-binding triple mutant of the human CD44 hyaluronic acid binding domain) (other)
chain: QIDLNMTCRFAGVFHVEKNGAYSISRTEAADLCKAFNSTLPTMAQMEKALSIGFETCSSGFIEGHVVIPRIHPNSICAANNTGVYILTSNTSQYDTYCFNASAPPEEDCTSV
notes: Made in E. coli, non-glycosylated; also called CD44-3MUT; 3MUT
binding result [1]: no binding
binding result [2]: no binding
